According to the supplement of paper PMC9116672:
± gives the standard deviation of the averaged measurements or the uncertainty stated by the source.

Key:
[1] = duplex formation free energy ΔG50 (Van't Hoff fit of HRM Tm); higher = less stable duplex; settings: temperature for dG: 50 °C, NaCl: 500 mM (unadjusted)
Method in brief: (§1)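 Duplexes of phosphodiester or phosphorothioate (mixed Rp/Sp) DNA strands, annealed 1:1, were melted in quadruplicate at 1–20 μM in 1× NNE buffer (500 mM NaCl, pH 7.0) with 1× EvaGreen, 37 to 97°C at 0.1°C/s. Enthalpy, entropy and extrapolated free energy come from a linear Van't Hoff fit of 1/Tm (Tm: peak of -dF/dT) against ln(CT/4), without salt adjustment and with fit standard deviations as errors. Free energy refers to 50°C.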

[2] = duplex formation enthalpy ΔH (Van't Hoff fit of HRM Tm); higher = less exothermic duplex formation; settings: temperature for dG: 50 °C, NaCl: 500 mM (unadjusted)
Method in brief: as §1

[3] = duplex melting temperature (HRM, EvaGreen); higher = more stable duplex
Method in brief: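 Complementary DNA strands (phosphodiester or phosphorothioate, Rp/Sp mixtures) were annealed 1:1 at 25 μM, then diluted to 1–20 μM duplex in NNE buffer (500 mM NaCl, pH 7.0) with 1× EvaGreen. A LightCycler96 read fluorescence (470/514 nm) while heating from 37°C to 97°C at 0.1°C/s. Melting temperature was the peak of the negative dF/dT curve from the instrument software. Four replicates were prepared; those lacking a clear peak were excluded and the rest averaged.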

[4] = duplex formation entropy ΔS (Van't Hoff fit of HRM Tm); higher = smaller entropy loss on duplex formation; settings: temperature for dG: 50 °C, NaCl: 500 mM (unadjusted)
Method in brief: as §1

[5] = backbone: PO-PO (both strands phosphodiester DNA)
[6] = backbone: PS-PO (listed strand fully phosphorothioate, complement phosphodiester)
[7] = backbone: PS-PS (both strands fully phosphorothioate)
[8] = duplex concentration 1 µM, backbone: PO-PO (both strands phosphodiester DNA)
[9] = duplex concentration 1 µM, backbone: PS-PO (listed strand fully phosphorothioate, complement phosphodiester)
[10] = duplex concentration 2.5 µM, backbone: PO-PO (both strands phosphodiester DNA)
[11] = duplex concentration 2.5 µM, backbone: PS-PO (listed strand fully phosphorothioate, complement phosphodiester)
[12] = duplex concentration 5 µM, backbone: PO-PO (both strands phosphodiester DNA)
[13] = duplex concentration 5 µM, backbone: PS-PO (listed strand fully phosphorothioate, complement phosphodiester)
[14] = duplex concentration 7.5 µM, backbone: PO-PO (both strands phosphodiester DNA)
[15] = duplex concentration 7.5 µM, backbone: PS-PO (listed strand fully phosphorothioate, complement phosphodiester)
[16] = duplex concentration 7.5 µM, backbone: PS-PS (both strands fully phosphorothioate)
[17] = duplex concentration 10 µM, backbone: PO-PO (both strands phosphodiester DNA)
[18] = duplex concentration 10 µM, backbone: PS-PO (listed strand fully phosphorothioate, complement phosphodiester)
[19] = duplex concentration 10 µM, backbone: PS-PS (both strands fully phosphorothioate)
[20] = duplex concentration 15 µM, backbone: PO-PO (both strands phosphodiester DNA)
[21] = duplex concentration 15 µM, backbone: PS-PO (listed strand fully phosphorothioate, complement phosphodiester)
[22] = duplex concentration 15 µM, backbone: PS-PS (both strands fully phosphorothioate)
[23] = duplex concentration 20 µM, backbone: PO-PO (both strands phosphodiester DNA)
[24] = duplex concentration 20 µM, backbone: PS-PO (listed strand fully phosphorothioate, complement phosphodiester)
[25] = duplex concentration 20 µM, backbone: PS-PS (both strands fully phosphorothioate)
[26] = duplex concentration 1 µM, backbone: PS-PS (both strands fully phosphorothioate)
[27] = duplex concentration 2.5 µM, backbone: PS-PS (both strands fully phosphorothioate)
[28] = duplex concentration 5 µM, backbone: PS-PS (both strands fully phosphorothioate)

Sequence	duplex formation free energy ΔG50 [1, 5] [kcal/mol]	duplex formation free energy ΔG50 [1, 6] [kcal/mol]	duplex formation free energy ΔG50 [1, 7] [kcal/mol]	duplex formation enthalpy ΔH [2, 5] [kcal/mol]	duplex formation enthalpy ΔH [2, 6] [kcal/mol]	duplex formation enthalpy ΔH [2, 7] [kcal/mol]	duplex melting temperature [3, 8] [°C]	duplex melting temperature [3, 9] [°C]	duplex melting temperature [3, 10] [°C]	duplex melting temperature [3, 11] [°C]	duplex melting temperature [3, 12] [°C]	duplex melting temperature [3, 13] [°C]	duplex melting temperature [3, 14] [°C]	duplex melting temperature [3, 15] [°C]	duplex melting temperature [3, 16] [°C]	duplex melting temperature [3, 17] [°C]	duplex melting temperature [3, 18] [°C]	duplex melting temperature [3, 19] [°C]	duplex melting temperature [3, 20] [°C]	duplex melting temperature [3, 21] [°C]	duplex melting temperature [3, 22] [°C]	duplex melting temperature [3, 23] [°C]	duplex melting temperature [3, 24] [°C]	duplex melting temperature [3, 25] [°C]	duplex formation entropy ΔS [4, 5] [cal/mol/K]	duplex formation entropy ΔS [4, 6] [cal/mol/K]	duplex formation entropy ΔS [4, 7] [cal/mol/K]	duplex melting temperature [3, 26] [°C]	duplex melting temperature [3, 27] [°C]	duplex melting temperature [3, 28] [°C]
TAGACGCGGCCTCTTTCC	-16.4 ± 0.68	-14.9 ± 0.32	-13.4 ± 0.56	-99.8 ± 8.6	-103 ± 5.1	-101 ± 11	73.91 ± 0.44	67.6	74.76 ± 0.23	69 ± 0.71	76.52 ± 0.15	70.8 ± 0.46	77.7 ± 0.27	71.32 ± 0.62	66.47 ± 0.089	78.58 ± 0.21	72.01 ± 0.38	67.44 ± 0.059	79.83 ± 0.13	73.3 ± 0.19	68.13 ± 0.13	80.63 ± 0.22	73.84 ± 0.11	68.81 ± 0.13	-258 ± 24	-272 ± 15	-272 ± 32	–	–	–
TATTCTGCCAATGGAAC	-12.43 ± 0.11	-10.59 ± 0.059	-8.755 ± 0.02	-79.9 ± 2.2	-75.2 ± 2	-69.8 ± 2.2	61.28 ± 0.28	52.9	63.72 ± 0.46	56.19 ± 0.12	65.46 ± 0.21	58.32 ± 0.085	66.751 ± 0.054	59.47 ± 0.085	51.303 ± 0.046	67.63 ± 0.082	60.21 ± 0.12	52.24 ± 0.13	68.883 ± 0.048	61.27 ± 0.062	53.39 ± 0.22	69.87 ± 0.1	62.27 ± 0.081	54.28 ± 0.14	-209 ± 6.6	-200 ± 6.1	-189 ± 6.7	45.3 ± 0.74	48.29 ± 0.081	50.06 ± 0.16
TCTACACCGCGA	-10.8 ± 0.19	-9.65 ± 0.1	-8.523 ± 0.038	-54.3 ± 4.1	-46.4 ± 3.2	-44.4 ± 2.7	–	–	–	–	62.45 ± 0.36	57	64.36 ± 0.22	58.2 ± 0.61	49.78 ± 0.41	65.78 ± 0.25	60.1 ± 0.43	52 ± 0.91	67.547 ± 0.058	61.71 ± 0.24	54.2 ± 1.4	68.14 ± 0.13	63.08 ± 0.18	–	-135 ± 12	-114 ± 9.5	-111 ± 8.4	41.3 ± 0.82	45.5 ± 0.56	48.18 ± 0.13
TCTCGCGGTTCCATTA	-12.1 ± 0.14	-10.99 ± 0.07	-9.954 ± 0.074	-61.4 ± 2.4	-64.3 ± 1.7	-59.3 ± 2.9	62.7 ± 1.2	56.3	67.08 ± 0.63	59.34 ± 0.38	68.7 ± 0.86	61.95 ± 0.17	70.24 ± 0.58	63.21 ± 0.18	58.48 ± 0.13	71.59 ± 0.45	64.2 ± 0.12	59.42 ± 0.15	73.26 ± 0.38	65.517 ± 0.063	60.81 ± 0.1	74.35 ± 0.18	66.61 ± 0.15	61.53 ± 0.15	-152 ± 7	-165 ± 5.2	-153 ± 8.8	50.4 ± 1.6	54.64 ± 0.23	57.28 ± 0.084
